In the NTF2 design screens of Basanta et al. (2020) one finds protease stability score data, which are given here for 47 sequences.

The data set in a line: protease stability score; higher = more stable; yeast display proteolysis, trypsin and chymotrypsin.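 Note: relative to predicted unfolded state with 0 unfolded-like and 1 meaning tenfold more protease.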
“SEQWEEAKRLTDLYLTTSHTGDEQLSREFMDPHARTIVDGVEVHGMEEWANRFMRFVKQLRVDFRIHDMDVQGEKVDVDIRIRFVFNGVEHRIESILIVHKINGRWLMKEQRII” yielded a protease stability score of 1.34. The same measure for “SERDEEAKHLSEEIIRLWRTGDWKTFVRMLDPNDRMEVDGQSFHGMEDVIKFLLDFWKHLRIEDIRFRDLKYQGDKASSHTEVDVRIGDKQTRLHTEVDVLVVNGKLKSHRIKIE”: 1.08; for “SERDELVEKLMESALDFWRTGNEDLMERLLDPHVRLDINGREHHGREVVIKAFREIWMLLGIDHIDIHHVDIQGEYVHLDVRVKVNGKDTRSRIELIVVDGKITELIIRLR”: 2.51. The same measure for “SERDEVAHLAFEYLINTHQTGDWRLFKEYLDPNVRFHVGDKFFHGRESVSKFFEEEMHRLGFKHIEMEHFEQQGDYLTINLTVRVDGQEYKLIYFALKVDGRWILRSITFE”: 1.38.

“SERDKFTEEVARLWYHLLYTGNEELLQHMMDPDVRVHINGRTVVGRHEATRLLHELSETFGINHIHIHDIKIQGDKSDDDTEIQAPGRRVRVHIHLEIINGRIKRIEFRIE” came in with a protease stability score of 1.68. The same measure for “SERDRHNEEMARHFIRLFLTGDWDDFQHLFDPNVRTHIDGRDYHGWRSTLEAVRTLEREIRIEEIRVEHVDTQGDFIHQDTKVDFNVNGQRVIRESKVHIYEVNGRIKEIEMHYH”: 0.486. Consider “SERDRIAKELKDILRSSRETGDERMMEELADPNVRFEINGVTIIGREEFYRWMSEWRLELEHSNDHDEREFDGQVNVDGTLVMRFTVNGQERREKVRITIHFLKVDGRWILHRIIIH”, for which the protease stability score was determined as 2.03. Consider “SEREDEMNHSRHLIEDSWRTGDFHITVRLADPHMKVIVGDYEYHGREHLHEVARNADIYHRIHINDWRIIGNKVEIDTEIDGFFNGVPHRTRVEIILSKINGRWILRSIIFR”, for which the protease stability score is 1.31. Regarding “SEREDITHEFIQKTIKAIHTGDFILLLRLLDPDMQFDIGDKEFIGRERLREFMEEWRVRVKHYEIEHVRLQGDKLETHTHEHREIWIGDKVVHERFDRKIEITKVDGQWAIKRVEII”, the protease stability score is 0.284. For “SEREEDTEHHMRMLIKDHETGDWRSWKKLVDPHVKLEINGREHHGRELALHMFRRVDHIESTVRDRTIQGDKVHHDGHLIINVDGVNIIVRSEIILIKVDGQWRIEILIFR” the value was 0.957; for “SEREEEARKMTRRIIHTFFTGNEDFWDHLVDPNARVVINGVTVHGWERFQELLVDFLKEMRTRHIELRHLDAYGDKAHTDGRVDGDVNGQRVLRIEHLRVDVINGKVHSVEIEFR”, 0.916; for “SEREEEMKHLHKNLVHNLFTGDEDSHKKLADPNARSVFDGRDFIGMDWWSRYYRHVFERFKGLRLENHHIHFQGNYLHIEARSYIGDKEEIWHFDYFMFDGKVHEVRMEVTKR”, 0.813. The same measure for “SEREEENRRAFHKFWEIIKTGDEELQDTFADPHVRLDVDGKEFHGREWIVRMLTELLRRFGVDHITFKHVEVQGDKLIIHHRDEVGDKKFELHVIVDKINGRWYERHVSMSER”: 1.65; for “SEREEHDEFIMKLSLELEKTGDEHTIERLADPNPRIILEQGDKRITRHGWEHWEELLRRLGIKHIEFHRHKAINGQVHVDGTLRFDGVTVRSELVLIMVDGVMKTIKVIIR”: 1.44; for “SEREEHTEEVWRDWLQSILTGDEDDLKRLADPHVRLEINFDGRTLIYHGREIVARFWSELRIRHFTLRHLKMIGDKIQVKGETKLEQGDKKVDSSVDLDTDIINGVIKREFVVYR”: 0.892.

Sequence “SEREEKIEHALRRLFEVILTGDERLANELLDPNVLLDVGDKKIHGREEVMRILHHWRIDKFEMHTHDIRLIGEKAHVDTISDRRVHVNGRTQDITERVHFVVLKVNGVWFIHSMHIH” gave a protease stability score of 1.59. For “SEREELVRYAIELMEEVMRTGDERLIESMADPNTRVVVNGVELHGRNHLLRVWSEWRTRDMREREVHVYDGRIEMHGTSDITIGDKHVITDTRHIAEKVDGRWILRSVEFR” the value was 0.405; for “SEREESFEKWVEMYERALQTGDEEHISRLMDPNARSNINGVELHGREQTLEWLRHVKENLGVERVDVRVNLHRYRVIGNYIESDQELILIYNGREFRFHFHFIARKINGRWVVDRLEIK”, 2.51; for “SEREEYLEEMFHLFIHYLLTGDWELLINLMDPHARNEIHINGVIFLVHGRELVKEIWERFRKHIRIKHIHVEELRVQGDKAESHTWVHYTIDGRESRVFTRVEIRIIDGVVRRISVEIR”, 1.72. Sequence “SEREEYSHRAVELLIHLLRTGDEDMISKLADPNTYLDWNGREEVGMEDWLRLLREMRIHDVIIHTIEIQGDKIHMDVIIDGEFDGRRTEMRVHLILLKVNGRWVLTEVKIH” displayed a protease stability score of 1.03. The same measure for “SEREHEALRWMELIIDLWITGDEEFTHKLADPHAKYEYGDKVIHGMEEFTRIMNEWRIKRVHLHEFRFIGNFSHSNMHRRGNIDGVDVDTEITVTVVIVNGRISSISIEVR”: 0.751; for “SEREHEVQESLEILIKLWHTGDFRAISEYADPNVRSDVNGKEFHGRENVEEALERSMKDLGVKVVHSEHIEHLEIYGNKVIVHVRIDGEVDGKRFHSHFIMYTTKVDGQWRVHEIRVH”: 1.03; for “SEREHLADRFVKELTTALQTGDEEKIREMFDPHMKLIINGVTFHGWEELEKIRKRVDHIEHVEVRIEDVRIINGVVEIKGELHVHERVGDKIIDRSNDQTYFVEKVNGRWILKQVELH”: 1.14.

Sequence “SEREKESERLWRLSAEVMETGDESMSLKEFDPHYRVLFDGQDFHGREQWKEFLERFDHEALKRFHEKRDDRQGDKAIHEGDLDLVLNYGDKQLRTRRDVIFYITKVNGKWMIKIVEFV” yielded a protease stability score of 0.084.

“SEREKHSKELNEHMIQLFETGDEDLLIRMADPHVRVIQGDKEYHGRHWYEKIFHDFVKQAQNARFEIHDVKIQGEKLIIHGKMEWNGKRHEVEWYFDIVDGRIKEEEIRIR”: the protease stability score amounted to 0.943.

As for “SEREKHWRDWVENVVEYHTHLLETGDEEEWKRFFRRLADPHVRMIVGDKVTHGREDAMRLFDELIKLLGVNHVHFRRVEIIGNKVNIDVELRQGNKFINLELILIVIDGKLENVERRVH”, the protease stability score came out at 1.14. For “SEREKIAELAYRLLKRSSDTGDPHLMQWLMDPNTRIEQGEFEHHGRDAISFWIKRFDHNRHIDVKRIEVQGNKVIMEFDVELDVNGVEIHTELVLISLKVNGQWRMESIKIE” the value was 0.575; for “SEREQTVRHWVELLIHLLITGDEETLVHLLDPHARADIDGVEMHGRKTTEFWLKLFPHIKIELRRVEIQGEKVHMDTTMIQGEKERSTRIHLDVINGRIKRHSYEIE”, 0.262.

“SERHDHAEHVLRLWEHFWKTGDETNLSRLLDPSVRWVIGDKVYHGMETVSHNLSRHYLRADHVEESVHRLNFQGNKVEMDGRIILNVNGVQIDKRSHIELISFNGKIKELDLHIT” yielded a protease stability score of 0.371. “SERHEESHERTRLLMHAHETGDFHTLQRLMDPDTRLLIIFNGREIHIHGMESAFKFFNEIRISHVTIHRVDIQGDKVNVDGEQEGQINGQRSRNRIHWDIDVIDGKIKRIIVEIR” registered a protease stability score of 0.993.

Sequence “SERHEILRLITEIWDHLKHTGDEDSLADLFDPHARMIWNGRDIHGWSNLIEAFRKILEFLGIDRIHIENTEMRLQGDKSHNRTDLNVNGKHLDTRVHLDVVDGRIRVTEVRIH” returned a protease stability score of 1.06. The same measure for “SERHEKTKKVLDDFLEIRETGDEHTFNRLADPHTRVHIGDKYVHGMEDANKMLKQWEQEMGIDHIIIRHVEIRLFNGKVNHHLDEELIVNGQSLRVEVVLFIFKFDGRWVLEKLHINVH”: 1.21. Take “SERHELVVRIVRLWIRMIRTGNEELYMRLADPHVKLDVNGREMHGRERSTEMWSELRIRHLHTEHIEVAENRFVVHGRLVTEFNGKEHDVKVVIHVEIVDGRIKEEEYHIL”: the protease stability score amounted to 1.29. For “SERHKDMKRLIDEWRKSYETGDEDQLRRLLDPTTRVDFNGVEYHGRHEAVEIMSQIRVEHIDIRELHVQGNKAEVRVRMHGHFDGQEEEVEFIIYMKKVNGRWVVHQEEHR” the value was 1.16; for “SERKQASEDAFRIYIETFKTGDERTMRENMDPDVRVHIGEFNHHGMEESAHLLHEYWKRFGFRIRHVHIEDVKNVGNKVILHTLSEIEINGREEHVDTELIILKIDGKWLVEEVRVK”, 0.92. For the sequence “SERREFSNFTMQMTITVTLTGDFHTSHRFVDPHARWEQGDKEYHGREIFAKTLLDKSSELGVDHYDIKTIHIQGEKVTVHLRVEVNGVEFELILRAHKINGVWLMESVEVRER”, the protease stability score is 0.971. The same measure for “SERRERLEVLSEILLRAWETGDEQELVENADPHTKLEVHQGDKEKHFHGWELILKHIYQIKNVKIHIEHVHIQGDKIENHVKLNINGKRIEVEITVWVVDGVIKHMEVRIK”: 1.93. The same measure for “SERSEFITRLTREMIHAFETGDWKWLSELLDPNTRYHFRQGDKEFDMHGREEMVKMLEKILRHFGIDHFHIEDVKLYGDKVIVHHRSLVNGKEVHVRIEWDIVDGRIKSFNLDYHEN”: 1.26.

The sequence “SESDEMAVEMLLRWVENLITGDEHTSQELLDPHVRIIFYIGDKEVHYHGWENAVEFWEEVVRRYDYFHIKFEEITVQGEKVRSKTRLTVIINGQEERYDTKLNAIVVNGRFKSVTIQYD” had a protease stability score of 0.876. For “SESEDLLETLERVIRRVDETGDERDFHEMLDPDARIIIGDKIHIGREASELWFKRVDHIHHRHIHQIRVIGNKMHIDIEVDGKIGDWRFRTRVELVLVKVNGKWMVHHININ” the value was 1.17; for “SESEDQAHKFSEEWIKAFETGDEEHMNRLVDPNVRIEVGDKEHHGRHVYLEILKRLGANHVRIHIEDIEVQGEKLIIHGKIIITVGDKVIEIRTIIIVTKIDGRWRIKDIIFH”, 1.39; for “SESEEASEWVIKIWRDTMETGDEKTLNHLLDPSVRLVVNGQEIHGRESMIKEFRRFKNVKLHDIKHHDIDMIGDKIIIHGTIHGEINGREVTVEQEIISIKVNGKWLTRSLILH”, 1.64.

“SESEEASREAIHLMIESWRTGNEHILDRLMDPNVRNRIDGRDLIGRENFLEVLRHLEEKMGIDHIEFDTERVRWVGDKAESDTRFETVYNGKNVEISTKVHWEKVNGRWHIREIRFH” showed a protease stability score of 1.17. The same measure for “SESEEDAHKASREITHMLYTGNEELWSTLADPNTRIVINGVEVHGREQVVRVIRELLRRFGVDKVHSELRTVDVQGEKVEIHSHYVQGDKSYDIILVMNKIDGRWHLQRQSIR”: 1.18; for “SESEEDFRWFMHVLLKTFLTGDEDEFDSLIDPNVRLIVNGKDTHGWEVAVKFVRRFDHLDLYVRESEIQGDKVESDTELIVNFNGVSIKHKTRVIAEKVNGRWILREMRIG”: 1.44; for “SESEEEARKVIERLFRAERTGDEDDVKHLLDPNVKIDWNGRKYHGRDDWAHYISHLGIDHSELIIKHLEYQGDKLRLHGILRYVIGDKTIEEEVFEHMQKINGRWRIREIHIK”: 1.64. For “SESEEEARRKSEVFLRHLRTGDFREFIKLADPHVLNIFPGVNHVGREHWRRLELHLRRREFRVHDERLDIQGDKVRINIDLETDVEFDGKELKFRTLILIEAEKVDGRWRVTEVSEEPR” the value was 0.524.
